Columns and labels:
[1] = biological target: T1, PDGF beta receptors (Homo sapiens, UniProt P09619); assay: Competition with 125I-PDGF-BB for binding to PAE-1 cells expressing PDGF beta-receptor; design: expressed in transfected cells; details: 5 ng/ml 125I-PDGF-BB tracer, on ice 90 minutes
Method: Next, full length and truncated PDGF-C were tested for their capacity to bind to human PDGF receptors alpha and beta by analyzing their abilities to compete with PDGF-BB for binding to PDGF receptors. The binding experiments were performed on porcine aortic endothelial-1 (PAE-1) cells stably expressing the human PDGF receptors alpha and beta (Eriksson et al., EMBO J, 1992, 11, 543-550). Binding experiments were performed essentially as in Heldin et al. (EMBO J, 1988, 7:1387-1393). Different concentrations of human full-length and truncated PDGF-C, or human PDGF-BB were mixed with 5 ng/ml of ^125I-PDGF-BB in binding buffer (PBS containing 1 mg/ml of bovine serum albumin). Aliquots were incubated with the receptor expressing PAE-1 cells plated in 24-well culture dishes on ice for 90 minutes. After three washes with binding buffer, cell-bound 125]-PDGF-BB was extracted by lysis of cells in 20 mM Tris-HCl, pH 7.5, 10% glycerol, 1% Triton X-100. The amount of cell bound radioactivity was determined in a gamma-counter. A standard curve for the binding of ^125I-labeled PDGF BB homodimers to PAE-1 cells expressing PDGF alpha-receptor is shown in FIG. 18.

[2] = biological target: T1, PDGF beta receptors; assay: Binding of radiolabeled truncated PDGF-C to PAE-1 cells expressing PDGF beta receptors; design: expressed in transfected cells; host or cells: porcine aortic endothelial (PAE-1) cells; details: 125I-labeled protein, on ice 90 minutes
Method: To assess the interactions between truncated PDGF-C and the PDGF alpha and beta receptors, truncated PDGF-C was tested for its capacity to bind to porcine aortic endothelial-1 (PAE-1) cells expressing PDGF alpha or beta receptors, respectively (Eriksson et al., EMBO J, 1992 11:543-550). The binding experiments were performed essentially as described in Heldin et al. (EMBO J, 1988 7:1387 1393). Five micrograms of truncated PDGF-C protein in ten microliters of sodium borate buffer was radiolabeled using the Bolton-Hunter reagent (Amersham) to a specific activity of 4×10^5 cpm/ng. Different concentrations of radiolabeled truncated PDGF-C, with or without added unlabeled protein, in binding buffer (PBS containing 1 mg/ml of bovine serum albumin) was added to the receptor expressing PAE-1 cells plated in 24-well culture dishes on ice for 90 minutes. After three washes with binding buffer, cell-bound ^125I-labeled PDGF-C was extracted by lysis of cells in 20 mM Tris-HCl, pH 7.5, 10% glycerol, 1% Triton X-100. The amount of cell-bound radioactivity was determined in a gamma-counter. Non-specific binding was estimated by including a 100-fold molar excess of truncated PDGF-C in some experiments. […] The binding was specific as radiolabeled PDGF-C was quantitatively displaced by a 100-fold molar excess of unlabeled protein.

[3] = system: human bone marrow-derived AC133+CD34+ cells; assay: Human bone marrow cell adherence and differentiation assay; format: cell-based; details: 50 ng/ml
Method: Enriched human BM derived AC133+CD34+ cells (Clonetics) at 10^5/ml were cultured for 3 days in HPGM (Clonetics) in a 6-well plate (Becton Dickinson). Cells were then seeded in collagen coated 12-well plates in EBM (Clonetics) medium containing 4% FCS and VEGF165 (R&D Systems) or PDGF-CC (50 ng/ml each). Growth factors were added every two days and media were refreshed at 75% every four days. For adherence assay, 2.5×10^4 of non-adherent cells/ml were cultured in the same condition on chamber slides coated with collagen, or in 96-well plate coated with 0.3% gelatin in PBS. Cells were then washed three times with PBS, fixed and stained with May-Grünwald Giemsa (Sigma) after two weeks of culture on chamber slides (Becton Dickinson). The number of viable cells was estimated by ATP quantification using cellTiter-glo luminescent cell viability assay (Promega) according to the manufacturer's instructions. For cell surface marker staining, cells (2×10^4/well) cultured on collagen-coated culture slides for two or four weeks were fixed (45 min, 25° C.) and permeabilized (45 min, 25° C.) using a Intrastain Kit (DAKO), and then labeled with CD31-FITC (Becton Dickinson), CD144-FITC (Pharmingen), CD34-FITC (Becton Dickinson) or SMC-Actin CY3 (Sigma). Single or double-labeled cells were analyzed using laser confocal immunofluorescence microscopy.
Upon stimulation by growth factors or cytokines, bone marrow stem/progenitor cells can differentiate into ECs and SMCs and thereby contribute to angio/arteriogenesis (Orlic et al., Nature, 2001 410:701-5; Kawamoto et al., Circulation, 2001 103:634-7; Asahara et al., Circ Res, 1999 85:221-8). The potential role of PDGF-CC in the differentiation of bone marrow progenitors into vascular cells has, however, not been investigated thus far. We therefore cultured human bone marrow-derived AC133^+CD34^+ cells—a population enriched for stem/progenitor cells (Miraglia et al., Blood, 1997 90:5013-21; Yu et al., J Biol Chem, 2002 277:20711-6; Donnelly et al., Leuk Lymphoma, 2001 40:221-34)—and stimulated them with PDGF-CC, using VEGF as a control (50 ng/ml each).

T1 sequence (P09619 33-1106): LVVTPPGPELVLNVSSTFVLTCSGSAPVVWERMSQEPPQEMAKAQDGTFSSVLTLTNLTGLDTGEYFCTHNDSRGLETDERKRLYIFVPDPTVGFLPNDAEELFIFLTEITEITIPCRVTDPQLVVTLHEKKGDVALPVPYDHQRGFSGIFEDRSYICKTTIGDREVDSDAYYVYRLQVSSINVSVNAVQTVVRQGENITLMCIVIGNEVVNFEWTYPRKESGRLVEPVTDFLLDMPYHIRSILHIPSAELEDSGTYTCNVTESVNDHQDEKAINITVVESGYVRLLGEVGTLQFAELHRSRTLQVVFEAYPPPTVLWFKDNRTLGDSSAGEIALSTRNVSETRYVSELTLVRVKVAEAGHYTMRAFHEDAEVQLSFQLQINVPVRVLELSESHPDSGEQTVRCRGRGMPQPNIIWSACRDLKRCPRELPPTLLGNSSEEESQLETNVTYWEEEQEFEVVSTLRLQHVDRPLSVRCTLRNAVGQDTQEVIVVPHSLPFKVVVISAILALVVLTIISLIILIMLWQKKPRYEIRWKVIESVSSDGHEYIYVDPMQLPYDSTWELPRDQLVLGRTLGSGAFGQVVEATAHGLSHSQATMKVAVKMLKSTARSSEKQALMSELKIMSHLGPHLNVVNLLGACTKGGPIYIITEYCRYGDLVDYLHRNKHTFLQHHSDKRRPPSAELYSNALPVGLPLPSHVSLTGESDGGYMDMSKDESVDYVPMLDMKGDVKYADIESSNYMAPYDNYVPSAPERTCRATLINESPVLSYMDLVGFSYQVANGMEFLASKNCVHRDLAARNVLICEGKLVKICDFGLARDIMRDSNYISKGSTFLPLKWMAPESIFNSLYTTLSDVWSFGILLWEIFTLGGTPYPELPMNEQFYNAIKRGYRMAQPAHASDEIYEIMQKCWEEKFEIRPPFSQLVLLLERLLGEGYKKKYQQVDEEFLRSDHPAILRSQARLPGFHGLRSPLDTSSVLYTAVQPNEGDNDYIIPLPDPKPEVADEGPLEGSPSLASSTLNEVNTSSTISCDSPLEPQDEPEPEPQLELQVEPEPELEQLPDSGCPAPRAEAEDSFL

B1: PDGF-CC: recombinant human PDGF-CC core domain homodimer, residues 230-345 of full-length PDGF-C (SEQ ID NO:40), produced in baculovirus infected insect cells (protein)
chain: GRKSRVVDLNLLTEEVRLYSCTPRNFSVSIREELKRTDTIFWPGCLLVKRCGGNCACCLHNCNECQCVPSKVTKKYHEVLQLRPKTGVRGLHKSLTDVALEHHEECDCVCRGSTGG
modifications: homodimer; PDGF-C core domain
[1]
  competition for binding to the PDGF beta-receptor: failed to compete
[2]
  binding to beta receptor expressing cells: not
[3]; four weeks
  SMA positive cells: > 95%
  expression of CD144 and CD31: lost their expression
[3]; two weeks of stimulation
  adherence of AC133+CD34+ cells: enhanced
  expression of EC surface markers CD144 (VE-cadherin) and CD31 (PECAM): induced
  expression of smooth muscle cell marker SMA: induced

Source: patent US20070172423A1, “Composition and method for modulating vasculogenesis for angiogenesis” (priority 1998, published 2007)
